In paper PMC3817118:

Legend:
[1] = target: central region of the human metapneumovirus phosphoprotein (HMPV P residues 158-237) (human metapneumovirus, strain NL1-00); experiment: SAXS; Pced in solution at 3-6 mg/ml, 20 C; 20 mM Tris pH 7.5 with 150 mM NaCl, 800 mM NaCl, or NaCl plus 1 M NDSB-201; molecular weight from the volume of correlation Vc compared with the mass of a tetramer
[2] = target: core region of Pced (P_(core)), degradation fragment of HMPV P 158-237 found in the crystal (human metapneumovirus, strain NL1-00); experiment: crystal structure; vapor diffusion, 25 % PEG 3350, 100 mM HEPES pH 7.5, 20 C, crystal after ~142 days; 3.1 A, molecular replacement with the ab initio P_(core) model; 2 tetramers in the asymmetric unit

| Substance | stoichiometry N [1] | stoichiometry N [2] |
| --- | --- | --- |
| central region of the human metapneumovirus phosphoprotein (HMPV P residues 158-237) (domain or fragment) | 4 |  |
| core region of Pced (P_(core)), degradation fragment of HMPV P 158-237 found in the crystal (domain or fragment) |  | 4 |
